# Laboratory results as given in PMC8756792.
# Target: Ribulose-5-phosphate epimerase of Leishmania donovani (Leishmania donovani)
# Assay: SEC
substance,measurement,value
Ribulose-5-phosphate epimerase of Leishmania donovani (enzyme),stoichiometry N,2
